{"source": "a protein production outcome set (Wang et al. 2014)", "assay": "label from the status in PepcDB records"}
{"sequence": "PFGSTSGSLFGPSSFTAAPTGTTIKFNPPTGTDTMVKAGVSTNISTKHQCITAMKEYESKSLEELRLEDYQANRKGPQNQVGAGTTTGLFGSSPATSSATGLFSSSTTNSGFAYGQNK", "values": [{"measurement": "protein production", "value": "failed"}]}
{"sequence": "MTNIQKRFYKGRVALNVLANNIENAKDIFEAAEGYVVVGVLSKDYPTVEEAVTAMKAYGKEIDDAVSIGLGAGDNRQAAVVAEIAKHYSGSHINQVFPSVGATRANLGGKDSWINSLVSPTGKVGYVNISTGPISAAGEEKAIVPIKTAIALVRDMGGNSLKYFPMKGLAHEEEYRAVAKACAEEGFALEPTGGIDKENFETILRIALEANVEQVIPHVYSSIIDKETGNTKTEDVRELLAVVKKLVDQYA", "values": [{"measurement": "protein production", "value": "not failed"}]}
{"sequence": "MAAGAAEAAVAAVEEVGSAGQFEELLRLKAKSLLVVHFWAPWAPQCAQMNEVMAELAKELPQVSFVKLEAEGVPEVSEKYEISSVPTFLFFKNSQKIDRLDGAHAPELTKKVQRHAS", "values": [{"measurement": "protein production", "value": "not failed"}]}
{"sequence": "MEYLFLRRKRTTATSERQKTLLFKAAERQWKEEFAGKETDIRKVDCNIYKGILYQLEIRQVFLDTSLSLKKLSALLETNQTYLSNVVNKYFGCNLKELVNTYRVEYAKELLCSRRCALTELPCSCGFASKSAFYSAFSRIVGVSPLSYQTQERRRHHLQAVNLEHHHHHH", "values": [{"measurement": "protein production", "value": "failed"}]}
{"sequence": "MESMQDLWTLKYRAETLEGMLGNEHAVRTLSELLQSGTLPHLIFYGPENSGKTTASLALARELYGETWKNNFVYFNASDFFDQGKRYLVRDKRFVRILGTDDPKKIYKSVIDIFKEVVNEYAGMASIDADYKIIYIDNAESLSSDAQHALRRIMEKYSSTCRFILSTTRPSKLISPLRSRGLQVFFAYVPDSLLKTHLERIALAEKLKLSDGALDAVLYLAKGNVARAVQTLQLAALRSEGAEITEEIVYEATMKGRDETIDELLEAALAGDFARGRQLIDGMIIEKGLSGTDIFEGLSEALIDSGETDADIARLIVSISEADARLTDATSERIQLEKLISTFS", "values": [{"measurement": "protein production", "value": "failed"}]}
{"sequence": "MIERLELRNLTVFTGLTLELSPKINVIIGENGTGKTHLLKAAYGLCAGAPLFKNKPDTGDDELEAALTAKLLRLFMPLDDKLGKMHRQGATDQAYLSAKFAGGQKIAATFFNNSKALAVQDRANYEKYQAEAVFIPTKEVLSFMKGFNSLYEKYGLSFDQTYQDICLLLDLPEVRPETLHEKSKWAMAEIEGICGGRFVFYGGGKVTFKTENAEYSANSMAEGFRKAGILSRLLETGAIQPGVSGPLFWDEPESNLNPKLMKLLVQILLELSRNGQQIILATHDYVLLKWFDLLMDKGKDDHVRFHSLYRDADTSEIKVASTEDYLKITPNPIDEAFGFLINQEIENDMGGLGK", "values": [{"measurement": "protein production", "value": "failed"}]}
{"sequence": "MTFRYRGPSPKGDQPKAIAGLVEALRDGERFVTLLGATGTGKTVTMAKVIEALGRPALVLAPNKILAAQLAAEFRELFPENAVEYFISYYDYYQPEAYVPGKDLYIEKDASINPEIERLRHSTTRSLLTRRDVIVVASVSAIYGLGDPREYRARNLVVERGKPYPREVLLERLLELGYQRNDIDLSPGRFRAKGEVLEIFPAYETEPIRVELFGDEVERISQVHPVTGERLRELPGFVLFPATHYLSPEGLEEILKEIEKELWERVRYFEERGEVLYAQRLKERTLYDLEMLRVMGTCPGVENYARYFTGKAPGEPPYTLLDYFPEDFLVFLDESHVTVPQLQGMYRGDYARKKTLVDYGFRLPSALDNRPLRFEEFLERVSQVVFVSATPGPFELAHSGRVVEQIIRPTGLLDPLVRVKPTENQILDLMEGIRERAARGERTLVTVLTVRMAEELTSFLVEHGIRARYLHHELDAFERQALIRDLRLGHYDCLVGINLLREGLDIPEVSLVAILDADKEGFLRSERSLIQTIGRAARNARGEVWLYADRVSEAMQRAIEETNRRRALQEAYNLEHGITPETVRKEVRAVIRPEGYEEAPLEADLSGEDLRERIAELELAMWQAAEALDFERAARLRDEIRALEARLQGVRAPEPVPGGRKRKRR", "values": [{"measurement": "protein production", "value": "not failed"}]}
{"sequence": "MHSIQSPRLRQHFPRRSPKKLALKKSGGLGHRAKASHCYRIVLYSHDTMGLGHKRRNLLIAQTLQKSRLPVEILVITGIEEGNEALTAAGINYVNLPSLRKNGDGSYSGRDLDLPLEKLIAWRSQLILKTIQQFQPDVLMVDNVPRGVERELDPSLKYLRQRPESLCVLGLRDILDQPGTVQRDWGQADNERAIRRYYDAVWVYGDPQVYDLRHEYGFAPDVTAKMRPLGYFHQGDRLQHLTKPWQETLSNWKLPSRFILGAVGGGQDGETLAIAFAQIPFTADLPGVLLTGPFMPESVRQKLKVSAQNNPDLTILPYFSEPTMLMWAAERVITMGGYNTTCEILSFQKPALIIPRIKPRQEQWLRATRLKQLGLVDVLHPDQVNAQNLTAWLHSAPTNQYNKPVLNLRATQQLPLVLGQLLSTRNCFMSQAC", "values": [{"measurement": "protein production", "value": "failed"}]}
{"sequence": "MALDLNDVALFVQVVRSGSFAQAARHLGMPSNTVSRKVQQLEIQLGTRLLHRSTRKLVLTQAGEDFHERCVGAVDGLMDAAEQLVSGREEPGGRLRIAAMADFFDFFSMEWVADFLAEYPRVQLEFVLSDERADLIADRLDIAFRGGPLQDSGYVGRQLIEEGHDTMVASPAYIAAHGMPDSLQSLHGHYCVSTAHPGGSTVWRLLGPDAKMHEVQMASRFNANTAQALRKATLAGLGIALLPATLIRSDLRDGRLVPVLTQYQRTSHGLHVLYPSRQHLPPAVSAFIALVMEKLRDKAFAAQ", "values": [{"measurement": "protein production", "value": "failed"}]}
{"sequence": "WFMPFDNWLYQLQNADPVEISSSGFEIAVIDYSKDGSESGEYSPEEIKIMVDAGVVPVAYVNIGQAEDYRFYWKESWYTNTPEWLGEEDPAWPGNYFVKYWYNEWKEIVFSYLDRVIDQGFKGIYLDRIDSFEYWAQEGVISRRSAARKMINFVLEIAEYVRERKPDMLIIPQNGENILDFDDGQLASTVSGWAVENLFYLKTIPLEENETKSRLEYLIRLNRKGKFILSVDYVDDGSDSFENISRILDYYEKAKRNGCIPYAARSDLELDEMNVIEGIQPPEALKDYESRTYR", "values": [{"measurement": "protein production", "value": "not failed"}]}
{"sequence": "MASGNAGDTACLPAMVQAASLTAQQLLQQHWGYPAFRPGQAEIVEAIAQGRDCLIIWPTGGGKSLCFQVPALLRSGLTIVVTPLIALIENQVADLQARGIAAACLHSQMAPRDRKAVLQKLPQLKLLYLAPETLLSTPLWSRLTEPTIAIAGLILDEAHCLLQWGESFRPTYLRLGAIRPALVRLGKPSFPIAAFTATAYPQEVARLSQILQLQQPQRHQRDPYRSNLVLAVKTVWTPRQRQNQLLDFLAKHQGQSGLIYLRSRRDCETWADRLRNRGYRCAAYHAGVSDRERRQIEQAWQTGSLPFAVCSSAFGMGIDKRDVRWVAHVHPPLLLSEYLQEVGRGGRDQQRAQGLTLVSEPSGWLDPSDRDRWQGFQQATQQQWEAAQRQAQQLPASGDLRSLASSNELDLALAYLQRLGQLQWLDPFRYRRRAIPTPRPAPRLDLQPLRQFLYSRDCRWRSLLQSFGSNHPTTWRCGHCDRCQTTG", "values": [{"measurement": "protein production", "value": "failed"}]}
{"sequence": "MRTSGGQMNISSATLANTQRTIDSYEGCADDYSRIVDQFPWPSLEAALRQVATAAGKGGQILEIGSGAGWDADFLETQGVSVRRTDATRRFLELQAARGKKGELLNVITDDLGGPYDAVVALCVLIHAPRDQTGPVLEKIVAALRPGGVFLVSMRDGDGETSGAYHMSYWRRDDFALCIKEAGLALEWDAHRVNRDGDGWHTFYARRPE", "values": [{"measurement": "protein production", "value": "failed"}]}
{"sequence": "MKVTQLSSETLDRAHERFEETLAQMTVAEANTMPAPLIKSVTWLMWHTARELDLQISALNHSDPLWLSQHWTEKFALDLPDETEDWHHTPEEAAKVVVAEKQLLSDYLAASVALTKSYLDQIKEEQLSDVIDKNWTPPVTRQVRLVSAIDDAVMHSGQAVYTRRLVIGK", "values": [{"measurement": "protein production", "value": "not failed"}]}
{"sequence": "MWKCHRYMMSSHLHRQLDLINMEIKTIASGSKGNAYVISSGRSQLLIECGVNFDKIRKALNFDLSAVEACLISHEHGDHVAGVKKMLRTSSIKIYASEGTLSALNVPDSRQFILKEKDAQNIGEWIILPFQTEHDAKEPLGFMIQRHNERLLFITDSYFVRYKFKNINYLMIECNYSADILEENVINKVIHQVQKKRVLQSHFSLENVKEFLNANDLSQLREIHLLHISERNGDPERFKKEIQAMTGVPVYV", "values": [{"measurement": "protein production", "value": "failed"}]}
{"sequence": "MITIRNKIGQMLIMGFHGSELHDNSPVAQWLSNDGLGGVLLFDKDLSTGIYGKNLRNQAQIKQLIRQLNRYASMISGGNDNLPLFTAIDYEGGVVDRLSKIEGCPPTMKARELAKLSSDDFDEEVTQMAMTLQSLGFNLNFAPVVDLNLNAHAGIIGNLGRSFSSNPEVTIRLAKQFVDVFSRYGIACAYKHFPGHGSATGDTHEGFVDVTETFQTDELIPYRSLLKDLSNPFMVMTAHVINKHLDSKGLPATLSYDVLTLLLRQSIGYDGVIISDDLQMHAISNHYSLEDALCLTINAGADMVIFANQLGTITPPEVIDVIEKLVIDKQIPYQRIDEAYRRIVRLKQQIICSELINT", "values": [{"measurement": "protein production", "value": "failed"}]}
